In patent publication US11726088B2, “Sirtuin 4 (SIRT4) lipoamidase activity and uses thereof” (THE TRUSTEES OF PRINCETON UNIVERSITY, priority 2014, dated 2023):

Test system: purified porcine PDH
Assay: Immuno-capture activity assay of purified porcine PDH in vitro
Assay type: biochemical
Conditions: PDP1 0.1 μg/μL; recombinant SIRT4 50 μM + NAD 5 mM after PDP1
Procedure: Purified porcine heart PDH pre-incubated at a final concentration of 1 μg/μl (10 and 25 μL reactions for PDH assay and Western blot, respectively) in 1×PDH assay buffer for 10 min at 30° C. containing 2 mM CaCl2), with or without 0.1 μg/μL of pyruvate dehydrogenase phosphatase catalytic subunit 1 (PDP1, Abcam, cat. #ab110357). To reactions that were treated with PDP1, either NAD alone (5 mM), recombinant SIRT4 (50 μM)+NAD (5 mM), or recombinant SIRT4 H161Y (50 μM)+NAD (5 mM) were added and incubated for an additional 1 hr at RT. 10 μL reactions were diluted with 400 μL of 1×PDH assay buffer and 2×200 μL were used to determine PDH activity. For Western blot analysis (25 μl reactions), 5 μg of purified porcine PDH was mixed in 1× reducing LDS sample buffer, heated at 70° C. for 10 min, resolved by SDS-PAGE, and then proteins were transferred to nitrocellulose membranes for detection of total E1α, pS232, pS293, and pS300 (see western immunoblotting above).
To characterize the impact of the observed in vitro activity, we next assessed whether SIRT4 could regulate the activity of PDH. We first used an immuno-capture assay to test the activity of purified porcine PDH in vitro (FIG. 14A). […] Therefore, we speculated that the reduction in activity may result from SIRT4 directly hydrolyzing the DLAT lipoamide.

B1: PDP1: pyruvate dehydrogenase phosphatase catalytic subunit 1 (protein, UniProt Q9P0J1 72-537, looked up)
[Pyruvate dehydrogenase …: ASTPQKFYLTPPQVNSILKANEYSFKVPEFDGKNVSSILGFDSNQLPANAPIEDRRSAATCLQTRGMLLGVFDGHAGCACSQAVSERLFYYIAVSLLPHETLLEIENAVESGRALLPILQWHKHPNDYFSKEASKLYFNSLRTYWQELIDLNTGESTDIDVKEALINAFKRLDNDISLEAQVGDPNSFLNYLVLRVAFSGATACVAHVDGVDLHVANTGDSRAMLGVQEEDGSWSAVTLSNDHNAQNERELERLKLEHPKSEAKSVVKQDRLLGLLMPFRAFGDVKFKWSIDLQKRVIESGPDQLNDNEYTKFIPPNYHTPPYLTAEPEVTYHRLRPQDKFLVLATDGLWETMHRQDVVRIVGEYLTGMHHQQPIAVGGYKVTLGQMHGLLTERRTKMSSVFEDQNAATHLIRHAVGNNEFGTVDHERLSKMLSLPEELARMYRDDITIIVVQFNSHVVGAYQNQE
activity of purified porcine PDH: elevated PDH activity

B2: SIRT4: N-terminally truncated recombinant human Sirt4 (33-314 of SEQ ID NO: 2) (protein, listed as Homo sapiens)
chain: VPASPPLDPEKVKELQRFITLSKRLLVMTGAGISTESGIPDYRSEKVGLYARTDRRPIQHGDFVRSAPIRQRYWARNFVGWPQFSSHQPNPAHWALSTWEKLGKLYWLVTQNVDALHTKAGSRRLTELHGCMDRVLCLDCGEQTPRGVLQERFQVLNPTWSAEAHGLAPDGDVFLSEEQVRSFQVPTCVQCGGHLKPDVVFFGDTVNPDKVDFVHKRVKEADSLLVVGSSLQVYSGYRFILTAWEKKLPIAILNIGPTRSDDLACLKLNSRCGELLPLIDPC
activity of purified porcine PDH: able to attenuate PDH activity
